T1: caspase-1 (UniProt P29466 120-297; P29466 317-404, limits assumed)
T1 sequence (looked up) 1: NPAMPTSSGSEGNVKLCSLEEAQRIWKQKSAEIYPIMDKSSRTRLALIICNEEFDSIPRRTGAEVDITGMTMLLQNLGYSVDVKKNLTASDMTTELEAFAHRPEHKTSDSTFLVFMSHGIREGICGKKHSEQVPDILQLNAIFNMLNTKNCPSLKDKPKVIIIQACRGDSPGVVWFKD
T1 sequence (looked up) 2: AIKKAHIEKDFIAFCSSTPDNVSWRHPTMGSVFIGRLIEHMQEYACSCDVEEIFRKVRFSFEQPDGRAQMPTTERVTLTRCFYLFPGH

T2: caspase-10 (UniProt Q92851 220-521, limits assumed)
T2 sequence (looked up): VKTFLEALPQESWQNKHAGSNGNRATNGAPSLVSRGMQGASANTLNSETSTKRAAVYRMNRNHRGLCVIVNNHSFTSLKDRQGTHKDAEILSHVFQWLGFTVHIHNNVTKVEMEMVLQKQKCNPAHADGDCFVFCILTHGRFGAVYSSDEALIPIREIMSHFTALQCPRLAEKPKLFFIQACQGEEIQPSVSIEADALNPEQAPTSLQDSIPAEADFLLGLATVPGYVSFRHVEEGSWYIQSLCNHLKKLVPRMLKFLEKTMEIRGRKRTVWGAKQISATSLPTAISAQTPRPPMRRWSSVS

T3: caspase-7 (UniProt P55210 24-198; P55210 207-303, limits assumed)
T3 sequence (looked up) 1: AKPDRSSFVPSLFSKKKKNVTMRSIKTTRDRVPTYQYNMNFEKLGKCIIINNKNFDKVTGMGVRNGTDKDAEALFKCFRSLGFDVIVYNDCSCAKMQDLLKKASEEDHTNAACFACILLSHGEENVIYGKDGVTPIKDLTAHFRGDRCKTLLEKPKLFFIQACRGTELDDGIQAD
T3 sequence (looked up) 2: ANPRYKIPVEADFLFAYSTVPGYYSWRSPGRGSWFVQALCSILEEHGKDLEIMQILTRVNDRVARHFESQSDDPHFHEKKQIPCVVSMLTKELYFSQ


Legend:
Assay in all cases: Ki printed in running text; no assay described
caspase-1 = molecular target: T1, caspase-1
caspase-10 = molecular target: T2, caspase-10
caspase-7 = molecular target: T3, caspase-7
caspase-8 = molecular target: T4, caspase-8 (UniProt Q14790 217-374; Q14790 385-479, limits assumed)
T4 construct: also called purified caspase-8
T4 sequence (Q14790 217-374 limits assumed, form in doubt, chain 1 of 2): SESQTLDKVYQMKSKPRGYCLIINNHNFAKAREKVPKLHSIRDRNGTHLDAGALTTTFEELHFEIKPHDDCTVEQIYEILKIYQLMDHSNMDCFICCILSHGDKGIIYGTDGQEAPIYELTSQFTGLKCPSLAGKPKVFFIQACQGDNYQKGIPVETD
T4 sequence (Q14790 385-479 limits assumed, form in doubt, chain 2 of 2): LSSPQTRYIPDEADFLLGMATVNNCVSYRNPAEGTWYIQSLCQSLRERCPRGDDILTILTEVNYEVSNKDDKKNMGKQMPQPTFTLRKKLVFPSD

Ki (caspase-1) [nM]	Ki (caspase-10) [nM]	Ki (caspase-7) [nM]	Ki (caspase-8) [nM]	Binder
0.6	408			Ac-YVAD-aldehyde [Ac-YVAD-CHO, N-(N-Ac-Tyr-Val-Ala)-3-amino-4-oxobutanoic acid]
17	12	1	0.92	Ac-DEVD-aldehyde [Ac-DEVD-CHO, N-(N-Ac-Asp-Glu-Val)-3-amino-4-oxobutanoic acid]

Reference: patent US6855515 (MERCK, dated 2005)
